# B1: closed-gate E71V KcsA (C-terminal tail removed by chymotrypsin) (domain or fragment)
# chain: PMLSGLLARLVKLLLGRHGSALHWRAAGAATVLLVIVLLAGSYLAVLAERGAPGAQLITYPRALWWSVVTATTVGYGDLYPVTLWGRLVAVVVMVAGITSFGLVTAALATWFVGREQERRGH
# Target: the molecule itself
# Test: crystal structure
protein,measurement,value
B1,stoichiometry N,4
